The DeepSol protein solubility set

Assay: soluble on expression in E. coli; label from the status in PepcDB or PDB records
In the case of “MFWRSIPSLQTLLAAGMGLLMLEIVMAHQPAQAESCTVDPFGSEVCLPDSTPEEPDKPKRSNQSKKSNKPDKSKRMVIVPSCFGPCTQFPPAPPYRQFQEVMEEAALKATPDATPEPRPAEPLRPLWFKSDQLDDVEAETYLERTLDRNDMAQLNAVGIEADTDADGMVITVDGLSYGEVLEPHGLLFTNEVNEPGLNAWVRGFGGGSSNGAAGDRYANFSNGGSQIGFDIPINDETRIGLFGTYAVMNGTDGARGSWDSDGWGGGAYAEYWTSDFYLRGMVSAGGYDGEHRRKIDGETAKGDRSGNSWTGVLNIGAPLQSGDWIIEPQAQLSYTNTSLDKFSEHGANRRDRLRFHEMEVDQLGSELSVKFAIPIRDGERSLLLPSLRVGWAADWGMSGDHQKVSYLESGKSQRWDVNGNDDHAALVELGLDYTTFNFQDTSMGVYARGGGLLWAGNRGTSWQVQGGLNFKF”, the “soluble on expression in E. coli” value is reported as “not soluble”. With “MGAAAAPEVNMELVGHFGGTTDAVDVAGNYAYVGQGQDFLILDITNPSSPVLVSKIMTEGFVRDIKVSRNYAYVADDDNGLVIVDISNPSSPTLKGSYNIPGYTYCITVSGNYAYVADNDGLVIVDISNPSDPILKGRYAGPTGDVAVYGNYAYVADWGNGLMIVDISNPSSPVLKGSYDTAGDIYGVSISGNYAYVADGDTGLVIVDISNPSSPTLKGNYNTAGIACDVSVLGNYAYVADNDNGLVIVDISDPSSPVLKGNGSTTGYAHGIEVSGNYAYVANSNTGLVIVDISNPSSPTLKGSCDTIVRAKSIAVSGNYAYIADWDNGLVIVDISNPSSPFLKGSCDTPRSAQGVAVSGNYAYVADDDGLVIVDISNPSFPILNKSYNTGGWAQGITVSGNYAYVIDMANGIFIVDISNPSSPILEGMYDTSPIIIENYDYTGSIWSVSVSGNYAYVADEGNGLLIVDISNPSSPILKGSYDTAGLAYDVAVSGNYAYVADSKNGLAIIDISNPSSPILVGNYNTSGYAECVSISGNYAYVAVDDSLVVVDISNPSSPILKGLYAGSAGDIAVSGNYVYASEGVNGLVILKANPESAFTVADFSSNITSGYAPLSIQFNDHSQNATSWNWDFGDGYNSTNQNPIHTYSSAGTYTVNLTVINENRTASKVAKIFVLNTSLEHHHHHH” the “soluble on expression in E. coli” value was “not soluble”. In the case of “MGAAKPIFVEHSIVIDRPAQQVYDYWRKLENLPQIMSHLESVTVLDDKRSRWVAKAPLGTHVEWEAEVVNDKPGERIGWHSLPGATVDNAGSVQFESLPDDKTRVHVALSYRPPAGPLGAAVAKLFGEEPSQQIAEDLQKFKATFEGLEHHHHHH”, the “soluble on expression in E. coli” value is reported as “not soluble”. For “MGAVNKDVFATGAGQVDPAKVLSPGLVYDATTEDYLKFIQGTGMDLGMEGLGTTQARDMNVPSFALGNLAGKIEVTRTLTALTPGTYRASVNVPGVNVKVTPSVLTFGAPGEKKTFKVQFENNNAALGKFAMGSLNWQGANKTVTSPIAVRPQSVIALEHHHHHH”, the “soluble on expression in E. coli” value was “not soluble”. For “MGCAVSQESAIATVSSSSNTATTSTSSSNTSQKWATSRTSRPVTNVTQVSAIHTTSMDSGSSTVQLPSPRGSLTTAVSTSSSGAQRQMSANSERSLHTRPLSETAVILQSQAVKMSTGAGDSAVYEAVERGSLYSLDYRVYIKGPQGIVSPWHDIPLFANKDKRVYNMIVEIPRWTNAKMEMATKEPFSPIKQDEKKGVARFVHNIFPHKGYIWNYGALPQTWEDPNHVVPDTGAKGDNDPIDVIEVGSKVAGRGAVLQVKVLGTLALIDEGETDWKLVAIDVNDENADKLNDIDDVEKVYPGLLAASVEWFRNYKIPAGKPANEFAFNGEFKNREYAEKVIDETNEYWKTLIKEANPSLNTVSRVPEAVHQGTDEAAATAIGATPEHGANAPLPGDVDKWHFVQG”, the “soluble on expression in E. coli” value was “not soluble”. For “MGDIEGSSSAAQSAQPEETGETNADKTGFFTRIMDAFSSGESQQEPTLGGASAAPVPVPGILNLRRMRVEDVAIPTAEIVSVPLTVSKEELVHVFRDSGMTRIPVYENTLDTPLGFVHLKDFALTHGFNGNSTQFDLRSMLRPLLFVPPSMPIGVLLAKMQTERRHMALVIDEYGGVDGLLTIEDLIEQVVGEIEDEHDTDEAQTWVKERPGCYIAQARTPLDEFETEIGRSLTNHEDVDEEEIDTLGGLVFMLSGRVPARGEVVPHPDGVEFEVIDADPRRIKRLRVMIPDAAE”, the “soluble on expression in E. coli” value was “not soluble”. With “MGDRGYGGSRSYGGSSGGGSRGGYGGGGRGGGGGGYSGGRGGGYGGGGGGGYGGGGYGGGGRGGGRGGSNGSAGGRLRDVDWSAENLTPIEKDFYHENAAVSRREQYEIDQWVSANQVTLEGRGVPRPVFEFNEAPLPGQIHELLYGKFQKPTVIQSISWPIAMSGRDIISIAKTGSGKTLAFMLPALVHITKQAHRQRGEGPAVLVLLPTRELAQQVQEVSIDFCHSLGLKMTCLFGGASKGPQARDLERGVDIVVATPGRLLDFLDNGTTNMKKCSYLVLDEADRMLDMGFEPQIKKIIGQIRPDRQTLMFSATWPKEVRALASDFQKDAAFLNVGSLELAANHNITQVVDILEEHAKQAKLMELLNHIMNQKECKTIIFVETKRKADELTRAMRRDGWPTLCIHGDKNQGERDWVLQEFKAGKTPIMLATDVAARGLDVDDIKFVINYDYPNNSEDYVHRIGRTGRSDKKGTAYTFFTHTNASKAKDLLKVLDEAKQTVPQALRDMANRSYGGSNSRGRYGGGGFQKRGYGGNDNFAPKRPRYDNGGYGGGSGGGGRW” the “soluble on expression in E. coli” value was “not soluble”. For “MGEDTRVSYQDIKARVLAAIRDNTWPPGAMLPGEVALAQEYGCARATVNRAMRELAEEGILERKRKAGTRVKLAPARQARFSIPVVREEIEALGASYRYALVSRSEEATPKWLAAQLGLGAGDRVLHLVCMHYADERPFQLEQRWINLATVPQAAKKDFSQTGPNEWLVSEVPFTDIRLSFSACRGNRETAEFLGGNETDAHFTVERVTWLGERPVTYARLLFHAGYRMTTTL”, the “soluble on expression in E. coli” value was “not soluble”. For “MGEETRRQERRIDAEKRAVSSLLFRIIRSHSTPVANSTASDEATAAAAAGQQNFASRKRRETKKREKSSSSCVSHCFLVMGHGKAFVF”, the “soluble on expression in E. coli” value was “not soluble”. For “MGEKRKTRQAEVNIGMVGHVDHGKTTLTKALTGVWTDTHSEELRRGITIKIGFADAEIRRCSNCGRYSTSPICPYCGHETEFIRRVSFIDSPGHEALMTTMLAGASLMDGAILVIAANEPCPRPQTREHLMALQIIGQKNIIIAQNKIELVDKEKALENYRQIKEFIKGTVAENAPIIPISALHGANIDVLVKAIEEFIPTPKRDSNKPPKMLVLRSFDVNKPGTPPEKLVGGVLDGSIVQGKLKVGDEIEIRPGVPYEEHGRIKYEPITTEIVSLQAGGQFVEEAYPGGLVGIGTKLDPYLTKGDLMAGNVVGKPGKLPPVWTDLRLEVHLLERVVGTEQELNVEPIKRKEVLLLNVGTARTMGLVTALGKDEIELKLQIPVCAEPGERVAISRQIGSRWRLIGYGIIKELEHHHHHH”, the “soluble on expression in E. coli” value was “soluble”. In the case of “MGEPKDSLALFLCHESESSLNEDDDETIERSDKQEPHFTTTIDDEDYVADLVLKENLRFETLPSKTTSSSDRLIAIDWILTTRTRFGFQHQTAYIAISYFDLFLHKRFIGLQKDETWAMRLLSVACLSLAAKMEERIVPGLSQYPQDHDFVFKPDVIRKTELLILSTLDWKMNLITPFHYFNYFLAKISQDNHSVSKDLVLLRSSDSLLALTKEISFTEYRQFVVAAVTTLLASSSTSSDIRLTREEIANKFGSISWWTSNENENVYLCYQRTLEIEERKHMTPPPEIAVSREPPASGSGAKRRLSFDDSDQSSPPAKRMRRL”, the “soluble on expression in E. coli” value is reported as “soluble”. With “MGERGVEMRLRIRFESAECEVELYEEWAPETVRAIADALPIKSTANRWGDEIYFTTQVAVEKEENSKDVVELGDVAYWIPGKAICLFFGKTPISDDKIRPASAVNVIGRIVNSMEGLKGVADGESVVVERA” the “soluble on expression in E. coli” value was “not soluble”. For “MGETYDLLVIGGGINGVGIARDAAGRGLSVCLCEQDDLAAHTSSASTKLIHGGLRYLEQYEFALVGKALAEREVLLRLAPHIIWPLRFLLPHQPHLRPAWMIRAGLFLYDHLGGSKRSLPRSRRLSLRTHPVGQPLQESLRTGFVYSDAWVQDARLVVLNAMDAAKRGAQIHTRTRCVGAWRDAGFWYAELEGCDGRRRTVQSRALANAAGPWAVSFLDKVAAVPHQHALRLVKGSHIVVPKLFDHDHAYIFQQPDRRIVFAIPYEHDFTLIGTTDVDYEADPSAPKIDAAEVQYLCDAVNLYFQQQITPQDVVWNYSGVRPLLDDAEDNAAEVTRDYQLEVLTDGAPLLNVFGGKLTTYRKLAEEAVDRLTQALGARKPAWTARGEALPGGEQRDIASLLERVRTARPWLPAATAQRLVRNYGTCAEQLLGDAQDMAALGQHFGADLYQAEVDYLCAREWAQTADDILWRRSKLGLRVDAEARARLEAYLQTRPAAHANAQTHVVPALEHHHHHH”, the “soluble on expression in E. coli” value was “not soluble”. With “MGEVQREKVAVIIGPTAVGKTKLSIDLAKALNGEIISGDSMQIYRTMDIGTAKVTKAEMDGIPHYMIDIKNPEDSFSVAEFQERVRKHIREITERGKLPIIVGGTGLYIQSVLFDYQFTDDAGDVIYREQREKLALERGVEYVHEKLQEVDPESAERIHANNVRRVIRALEIFHTTGEKMSEQIEKQEKELLYDVSLIGLTMDREMLYDRINLRVDLMMEQGLLEEVEGLYNRGIRDCQSIQAIGYKEIYDYFENRASLEDAVSQLKTNSRRYAKRQLTWFRNKMDVTWFDVTDGEKTSEILRYIEGKLQVKSNNSKLEHHHHHH” the “soluble on expression in E. coli” value was “soluble”. For “MGFDLFGKIEDILKELPQDKEASVEDFEEERIKNCVPRIHKELREGFSPLEAGVLPYAISLNKGCYVGQEAIARVYFRGRTPRVLTKFEVIEQVKEEEKILEGNKAIGLITSVSPSGKMALGYILRAKFEKGKEYQTESGKVKAKGVCEDGSTLEHHHHHH”, the “soluble on expression in E. coli” value was “not soluble”. With “MGFMIEHWDFSTPMATQETTTAEHIQPNHWYHCERLHPDIRSWLEDNHVPRATVDHLLADESRPSFHPLDDDNFMLILRGINMNENASPEDMLSIRILYFQGALISTRKIPSRAIMEIRQALAEHKGPKSLASLLNQIIEGLNGKIDLYLDTIEETLNEFDVNDESTYNHIAAQKALISIKRFIRPQQYAIRDLIESESELVTSRPHQYRFAHNNITRINETIEFYLGEVALFQDEIKHNRDEKTNKNS” the “soluble on expression in E. coli” value was “soluble”. With “MGFNNLVSLAALIEKVFPIRYTPAGIPVLDIILKHESWQEENGQQCLVQLEIPARILGRQAEEWQYRQGVYVHVEGFLAQKSRRSLMPMLRIQNIQEYKG” the “soluble on expression in E. coli” value was “not soluble”. In the case of “MGGSHHHHHHGMASALGADGFVPLGTLLQLPQFRGFSAEDVQRVVDTNRKQRFALQLGDPSTGLLIRANQGHSLQVPKLELMPLETPQALPPMLVHGTFWKHWPSILLKGLSCQGRTHIHLAPGLPGDPGIISGMRSHCEIAVFIDGPLALADGIPFFRSANGVILTPGNTDGFLLPKYFKEALQLRPTRKPLSLAGDEETECQSSPKHSSRERRRIQQ”, the “soluble on expression in E. coli” value is reported as “not soluble”. With “MGGWMSCAPPIYTPHTNSWTESGWDRTSWWRWSAQRWSGWSFKIVRANKALRVMAKTKMPLVLIPPSPNKPYSKLAINQELHLTPHKKTSPATSSSLKPRPGPRGYLNARLSWRCPTLSRKVRVPTIKVPMVRAPSTKPSKTSSSNNPWPLTPRMRG” the “soluble on expression in E. coli” value was “soluble”. In the case of “MGHERDWSLVQVALTDITARKKAEAYLEYLGKHDVLTKLHNRAFYSDELNRLERSALRPVSAIVIDLNGLKEANDKLGHDAGDALLRRVGEVLNGVVTAPNHAARIGGDEFAILLPGADKQVAAAMVDTVYELLKINNQFYSSAPLSLSLGVATTEAGETMESLVRRADMNMYEQKNALEHHHHHH”, the “soluble on expression in E. coli” value is reported as “soluble”. For “MGHHHHHHGGHMSLKVLDFPSSKKAKELAVKYGYDEFIVRRWLHFFGDETEDIIRAFEEGIPKYIRINTLKIDEKGLLERLESRGFKLKKTEVPYCFEVVEEPYSIGATPEYLMGYYYVMDKSSCIPPLALEPKPGEVVVDLAASPGGKTTFLSMLMENKGAVIAVEPQKERLQPLIDNINRMGAMNVAVINVDGRRVPAMGIKADRVLLDAPCTGEGIIHKDPSRKTDRGKEDILFCSSLQRELVLAAFDCLKEGGVMVYSTCSLTPEENEFVVDFLLERRKGVVEEIEWGDEALALPGVKNEVSKARRFYPHRHQCSGFFVARIRKVGDSKAKPEEGGS”, the “soluble on expression in E. coli” value was “soluble”.
